For the experiment, the target named is MUC4 glycopeptide. Description: peptide or protein array; glycan microarray, components printed on epoxy slides; re-expressed antibody in solution at four concentrations from 1.5 to 100 μg/ml on the 873-component array; PBS pH 7.4, 0.05% Tween-20, 3% BSA; 37 °C, 3.5 h; detected with Cy3 anti-human IgG; apparent KD estimated by the method of Gordus and MacBeath.

Bounds are passed on as bounds.

B1: ADI-47299 (antibody, V domains shown)
VH: QVQLVQSGGGVVQPGRSLRLSCAASGFTFRLYSMHWVRQAPGKGLEWVGVISHTVTDKLYADSVKGRFSVSRDNSKNTLFLQMDSLRAEDTAVYYCARDGFDYWGQGTLVTVSS
VL: EIVMTQSPLSLPVTLGQPASISCKSSQSLVYSDGDTYLNWFQQRPGQSPRRLIYKVSKRDSGVPDRFSGSGSGTDFTLKISRVEAEDLGVYYCMQGTHWPLTFGPGTKLEIK
B1: the Kd is above 1000 nM.

Source of the values: publication PMC9576894.
